# In article PMC12687421, “Characterisation of an allosteric site in PLCγ enzymes and implications for development of their specific inhibitors” (Biochemical Journal, 2025):
# B1: PLCγ1^wt: full-length wild-type human PLCγ1 enzyme (protein, UniProt P19174 1-1290, looked up)
# chain: MAGAASPCANGCGPGAPSDAEVLHLCRSLEVGTVMTLFYSKKSQRPERKTFQVKLETRQITWSRGADKIEGAIDIREIKEIRPGKTSRDFDRYQEDPAFRPDQSHCFVILYGMEFRLKTLSLQATSEDEVNMWIKGLTWLMEDTLQAPTPLQIERWLRKQFYSVDRNREDRISAKDLKNMLSQVNYRVPNMRFLRERLTDLEQRSGDITYGQFAQLYRSLMYSAQKTMDLPFLEASTLRAGERPELCRVSLPEFQQFLLDYQGELWAVDRLQVQEFMLSFLRDPLREIEEPYFFLDEFVTFLFSKENSVWNSQLDAVCPDTMNNPLSHYWISSSHNTYLTGDQFSSESSLEAYARCLRMGCRCIELDCWDGPDGMPVIYHGHTLTTKIKFSDVLHTIKEHAFVASEYPVILSIEDHCSIAQQRNMAQYFKKVLGDTLLTKPVEISADGLPSPNQLKRKILIKHKKLAEGSAYEEVPTSMMYSENDISNSIKNGILYLEDPVNHEWYPHYFVLTSSKIYYSEETSSDQGNEDEEEPKEVSSSTELHSNEKWFHGKLGAGRDGRHIAERLLTEYCIETGAPDGSFLVRESETFVGDYTLSFWRNGKVQHCRIHSRQDAGTPKFFLTDNLVFDSLYDLITHYQQVPLRCNEFEMRLSEPVPQTNAHESKEWYHASLTRAQAEHMLMRVPRDGAFLVRKRNEPNSYAISFRAEGKIKHCRVQQEGQTVMLGNSEFDSLVDLISYYEKHPLYRKMKLRYPINEEALEKIGTAEPDYGALYEGRNPGFYVEANPMPTFKCAVKALFDYKAQREDELTFIKSAIIQNVEKQEGGWWRGDYGGKKQLWFPSNYVEEMVNPVALEPEREHLDENSPLGDLLRGVLDVPACQIAIRPEGKNNRLFVFSISMASVAHWSLDVAADSQEELQDWVKKIREVAQTADARLTEGKIMERRKKIALELSELVVYCRPVPFDEEKIGTERACYRDMSSFPETKAEKYVNKAKGKKFLQYNRLQLSRIYPKGQRLDSSNYDPLPMWICGSQLVALNFQTPDKPMQMNQALFMTGRHCGYVLQPSTMRDEAFDPFDKSSLRGLEPCAISIEVLGARHLPKNGRGIVCPFVEIEVAGAEYDSTKQKTEFVVDNGLNPVWPAKPFHFQISNPEFAFLRFVVYEEDMFSDQNFLAQATFPVKGLKTGYRAVPLKNNYSEDLELASLLIKIDIFPAKENGDLSPFSGTSLRERGSDASGQLFHGRAREGSFESRYQQPFEDFRISQEHLADHFDSRERRAPRRTRVNGDNRL
# modifications: full-length
# notes: full-length wild-type human PLCγ1 enzyme
# B2: K491D: PLCγ1 variant with K491D mutation in the nucleotide binding site (protein, UniProt P19174 2-1290, looked up, variant K491D)
# 1-phosphatidylinositol …: AGAASPCANGCGPGAPSDAEVLHLCRSLEVGTVMTLFYSKKSQRPERKTFQVKLETRQITWSRGADKIEGAIDIREIKEIRPGKTSRDFDRYQEDPAFRPDQSHCFVILYGMEFRLKTLSLQATSEDEVNMWIKGLTWLMEDTLQAPTPLQIERWLRKQFYSVDRNREDRISAKDLKNMLSQVNYRVPNMRFLRERLTDLEQRSGDITYGQFAQLYRSLMYSAQKTMDLPFLEASTLRAGERPELCRVSLPEFQQFLLDYQGELWAVDRLQVQEFMLSFLRDPLREIEEPYFFLDEFVTFLFSKENSVWNSQLDAVCPDTMNNPLSHYWISSSHNTYLTGDQFSSESSLEAYARCLRMGCRCIELDCWDGPDGMPVIYHGHTLTTKIKFSDVLHTIKEHAFVASEYPVILSIEDHCSIAQQRNMAQYFKKVLGDTLLTKPVEISADGLPSPNQLKRKILIKHKKLAEGSAYEEVPTSMMYSENDISNSIDNGILYLEDPVNHEWYPHYFVLTSSKIYYSEETSSDQGNEDEEEPKEVSSSTELHSNEKWFHGKLGAGRDGRHIAERLLTEYCIETGAPDGSFLVRESETFVGDYTLSFWRNGKVQHCRIHSRQDAGTPKFFLTDNLVFDSLYDLITHYQQVPLRCNEFEMRLSEPVPQTNAHESKEWYHASLTRAQAEHMLMRVPRDGAFLVRKRNEPNSYAISFRAEGKIKHCRVQQEGQTVMLGNSEFDSLVDLISYYEKHPLYRKMKLRYPINEEALEKIGTAEPDYGALYEGRNPGFYVEANPMPTFKCAVKALFDYKAQREDELTFIKSAIIQNVEKQEGGWWRGDYGGKKQLWFPSNYVEEMVNPVALEPEREHLDENSPLGDLLRGVLDVPACQIAIRPEGKNNRLFVFSISMASVAHWSLDVAADSQEELQDWVKKIREVAQTADARLTEGKIMERRKKIALELSELVVYCRPVPFDEEKIGTERACYRDMSSFPETKAEKYVNKAKGKKFLQYNRLQLSRIYPKGQRLDSSNYDPLPMWICGSQLVALNFQTPDKPMQMNQALFMTGRHCGYVLQPSTMRDEAFDPFDKSSLRGLEPCAISIEVLGARHLPKNGRGIVCPFVEIEVAGAEYDSTKQKTEFVVDNGLNPVWPAKPFHFQISNPEFAFLRFVVYEEDMFSDQNFLAQATFPVKGLKTGYRAVPLKNNYSEDLELASLLIKIDIFPAKENGDLSPFSGTSLRERGSDASGQLFHGRAREGSFESRYQQPFEDFRISQEHLADHFDSRERRAPRRTRVNGDNRL
# Assay: Specific activity of PLC variants in assay 2 (A2)
# Format: biochemical
# Conditions: aldol substrate in solution
# Method: The effect of nucleotide inhibition on PLC activity was measured using either a membrane-based assay with the fluorescent substrate (XY-69) incorporated into liposomes or using a small soluble substrate, Aldol 518 myo-inositol-1-phosphate (Aldol). Both methods utilised the same PLC assay buffer [20 mM Hepes-KOH, 70 mM KCl, 3 mM EGTA, 2.97 mM CaCl2, 2 mM TCEP and fatty acid-free bovine serum albumin (FAF-BSA; 50 μg/ml) (pH 7.5)]. Both assays were performed in low volume black 384-well plates (Greiner Bio-One), were composed of a final assay volume of 20 μl and were monitored in a Clariostar plate reader (BMG Labtech). […] The excitation and emission wavelengths were 588–15 and 642–20, respectively.
# A CLARIOstar plate reader (BMG Labtech) was used to measure the production of the fluorescent product. The excitation and emission wavelengths were 485–15 and 520–20, respectively. Each experiment was performed in at least triplicate; in many cases, nine-fold replicates were generated. The enzyme progress curves were plotted for each concentration of nucleotide using Graphpad Prism software. The initial linear rate of product generation was calculated and converted to a % inhibition when compared with the rate of PLC activity in the absence of nucleotide. […]
row,Molecule,Specific Activity A2
1,B1,18606 ± 685 RFU/min/mg
2,B2,18974 ± 796 RFU/min/mg
